# Data published in USRE46877.
# Tests used:
# [1] = molecular target: human CD4 antigen expressed on rat T cell line NB2-6TG (human) (UniProt P01730); test: FACS, NB2-6TG cells transfected with human CD4; Experiment 1; control antibody at 10 µg/ml
# [2] = molecular target: human CD4 antigen expressed on rat T cell line NB2-6TG (human) (UniProt P01730); test: FACS, NB2-6TG cells transfected with human CD4; Experiment 1; control antibody at 40 µg/ml
# [3] = molecular target: human CD4 antigen expressed on rat T cell line NB2-6TG (human) (UniProt P01730); test: FACS, NB2-6TG cells transfected with human CD4; Experiment 1; control antibody at 100 µg/ml
# [4] = molecular target: human CD4 antigen expressed on rat T cell line NB2-6TG (human) (UniProt P01730); test: FACS, NB2-6TG cells transfected with human CD4; Experiment 1; control antibody at 2.5 µg/ml
substance,measurement,setting,value
reshaped CAMPATH-1 antibody,Mean cellular Fluorescence,[1],9
same,Mean cellular Fluorescence,[2],9.4
same,Mean cellular Fluorescence,[3],11.6
same,Mean cellular Fluorescence,[4],8.6
